Results on twelve molecules are retold here after US20160108128A1 (CANCER RESEARCH TECHNOLOGY, published 2016).

In test [1] the target is T1, human Jagged 2, full length, on HEK293 cells (human, UniProt Q9Y219 24-1238).
T1 construct: whole, on cells; also called J2; hJ2
Kind of test: FACS, 293-JAG2 cells, anti-human-APC. The method, then: FIG. 18. […] Samples were analysed by FACS and the mean fluorescence intensities (MFI) were plotted. […] With the exception of J1-65D variants 13-16, all the remaining antibodies effectively bound the human J1 protein.
(§1) HEK293 cells transfected with human J1, J2 or FLAG-EGFP-tagged DSL-EGF3 constructs, B16F10 cells transfected with human DLL4 or mouse J1, and human cancer cell lines, were stained with either purified anti-J1 antibodies at 10 μg/ml diluted in FACS wash buffer (2% FBS in PBS+0.1% sodium azide) or neat hybridoma supernatants followed by a allophycocyanin (APC)-conjugated secondary antibody at 1:200 dilution: for murine primary antibodies, used goat anti-mouse-APC (eBioscience); for humanised and chimeric antibodies used goat anti-human IgG (H+L) secondary antibody (Jackson ImmunoResearch Laboratories). After washing, samples were fixed with 1% paraformaldehyde (in PBS) and acquired with a FACSCalibur. FACS data were analysed with FlowJo software (TreeStar Inc.).
Background: A flow cytometer gives signals particle by particle.

For test [2], the target named is T2, murine Jagged 1, full length, on B16F10 cells (mouse, UniProt Q9QXX0 34-1218).
T2 construct: whole, on cells; GFP co-expressed; also called mJ1; B16F10-mJAG1
Briefly: FACS, B16F10-mJAG1 cells, anti-human-APC. Here is the method:
FIG. 19. […] Samples were analysed by FACS and the mean fluorescence intensities (MFI) were plotted.
as §1

Test [3] concerns the target T3, J1 DSL-EGF3 soluble recombinant protein (human Jagged 1 amino acids 185-335) (human, UniProt P78504 185-335).
T3 construct: biotinylated in the CD46 ELISA; also called J1-DE3; DSL+EGF1-3
Kind of test: affinity to the immunogen J1-DE3; method not stated.

The term Kd denotes the concentration at which binding is half-saturated.

T2 sequence (Q9QXX0 34-1218, one chain of several): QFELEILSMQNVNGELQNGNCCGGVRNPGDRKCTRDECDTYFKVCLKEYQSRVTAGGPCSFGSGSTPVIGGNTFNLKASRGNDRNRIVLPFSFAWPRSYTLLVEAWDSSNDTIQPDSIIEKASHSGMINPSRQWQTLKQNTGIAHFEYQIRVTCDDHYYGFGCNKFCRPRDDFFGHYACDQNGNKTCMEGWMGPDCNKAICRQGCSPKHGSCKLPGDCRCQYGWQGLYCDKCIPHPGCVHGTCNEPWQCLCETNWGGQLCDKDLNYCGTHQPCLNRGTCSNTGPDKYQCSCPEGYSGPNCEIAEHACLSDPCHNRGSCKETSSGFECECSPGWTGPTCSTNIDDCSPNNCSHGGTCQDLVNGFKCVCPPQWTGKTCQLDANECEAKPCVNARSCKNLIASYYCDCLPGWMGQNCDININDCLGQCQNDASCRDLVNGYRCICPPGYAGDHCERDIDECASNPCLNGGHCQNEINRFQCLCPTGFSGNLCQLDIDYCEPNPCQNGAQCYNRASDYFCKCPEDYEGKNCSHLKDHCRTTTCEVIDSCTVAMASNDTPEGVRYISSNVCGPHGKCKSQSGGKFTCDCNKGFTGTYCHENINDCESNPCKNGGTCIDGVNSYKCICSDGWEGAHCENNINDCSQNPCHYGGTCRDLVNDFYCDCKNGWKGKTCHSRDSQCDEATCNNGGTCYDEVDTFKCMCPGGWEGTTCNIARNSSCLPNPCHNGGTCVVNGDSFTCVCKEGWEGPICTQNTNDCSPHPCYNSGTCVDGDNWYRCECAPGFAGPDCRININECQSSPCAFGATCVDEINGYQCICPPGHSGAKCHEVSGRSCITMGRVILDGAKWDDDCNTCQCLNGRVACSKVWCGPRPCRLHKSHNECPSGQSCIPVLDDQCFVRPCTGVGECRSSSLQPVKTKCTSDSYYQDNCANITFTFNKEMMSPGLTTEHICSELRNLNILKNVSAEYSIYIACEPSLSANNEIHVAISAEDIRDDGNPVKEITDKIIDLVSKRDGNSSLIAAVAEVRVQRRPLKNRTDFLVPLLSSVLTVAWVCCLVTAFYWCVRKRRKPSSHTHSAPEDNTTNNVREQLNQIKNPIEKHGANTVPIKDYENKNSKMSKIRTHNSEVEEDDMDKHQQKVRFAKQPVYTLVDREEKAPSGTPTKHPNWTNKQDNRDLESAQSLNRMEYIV
T1 sequence (Q9Y219 24-1238): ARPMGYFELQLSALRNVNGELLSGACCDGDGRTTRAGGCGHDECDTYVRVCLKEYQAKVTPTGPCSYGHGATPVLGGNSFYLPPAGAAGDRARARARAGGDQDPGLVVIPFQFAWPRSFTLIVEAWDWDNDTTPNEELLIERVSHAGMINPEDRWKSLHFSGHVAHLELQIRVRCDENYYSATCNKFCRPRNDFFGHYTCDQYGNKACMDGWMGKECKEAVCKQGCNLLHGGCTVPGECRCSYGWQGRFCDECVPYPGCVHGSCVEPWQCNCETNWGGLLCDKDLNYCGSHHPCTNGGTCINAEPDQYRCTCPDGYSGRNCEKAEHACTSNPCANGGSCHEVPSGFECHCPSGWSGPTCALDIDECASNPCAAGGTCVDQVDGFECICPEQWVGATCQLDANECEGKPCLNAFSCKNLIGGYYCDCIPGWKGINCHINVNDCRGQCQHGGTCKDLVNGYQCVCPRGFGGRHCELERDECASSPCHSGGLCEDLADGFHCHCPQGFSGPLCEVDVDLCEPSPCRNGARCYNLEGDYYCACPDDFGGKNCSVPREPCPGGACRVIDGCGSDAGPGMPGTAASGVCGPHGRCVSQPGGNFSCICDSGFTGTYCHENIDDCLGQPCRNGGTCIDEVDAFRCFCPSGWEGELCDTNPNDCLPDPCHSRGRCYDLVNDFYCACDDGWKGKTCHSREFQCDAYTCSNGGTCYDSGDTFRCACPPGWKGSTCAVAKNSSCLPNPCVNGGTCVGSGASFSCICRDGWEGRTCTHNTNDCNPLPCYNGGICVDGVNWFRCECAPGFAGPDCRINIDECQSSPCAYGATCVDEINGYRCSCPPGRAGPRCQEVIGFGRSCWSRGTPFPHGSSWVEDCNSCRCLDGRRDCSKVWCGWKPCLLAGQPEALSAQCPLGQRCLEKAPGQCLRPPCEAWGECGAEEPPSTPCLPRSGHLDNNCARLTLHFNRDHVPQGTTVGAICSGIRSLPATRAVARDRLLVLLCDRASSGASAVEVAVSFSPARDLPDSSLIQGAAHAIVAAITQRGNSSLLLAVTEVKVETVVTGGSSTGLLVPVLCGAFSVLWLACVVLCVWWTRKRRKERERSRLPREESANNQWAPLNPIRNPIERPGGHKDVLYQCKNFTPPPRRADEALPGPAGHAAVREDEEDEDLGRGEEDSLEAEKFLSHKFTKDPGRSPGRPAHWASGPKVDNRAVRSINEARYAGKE
T3 sequence (P78504 185-335, form in doubt): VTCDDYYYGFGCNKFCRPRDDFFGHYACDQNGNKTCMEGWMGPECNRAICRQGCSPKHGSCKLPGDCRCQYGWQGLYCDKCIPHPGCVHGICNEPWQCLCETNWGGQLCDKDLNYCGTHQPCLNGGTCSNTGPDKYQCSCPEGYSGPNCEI

B1: J1-183D variant 9 (antibody, human IgG1, V domains shown)
VH: QVQLVQSGAELKKPGASVKVSCKVSGYAFTDYAIHWIRQAPGQGLEWMGIINTYYGDSKYNQKFKDRVTMTVDKSTSTAYMELSSLRSEDTAVYYCARGYDGFAYWGQGTLVTVSS
VL: DIQMTQSPSSLSASVGDRVTITCRTSENIYSYLTWYQQKPGKAPKLLIYNAKILDSGVPSRFSGSGSGTDFTLTISSLQPEDFATYYCQHHYDIPWTFGGGTKLEIKR
notes: human IgG1; also called J1-183DV9; V9
As to B1, the binding result in test [1] and in test [2] was “no binding (tested: 10 ug/ml)” in each case. Also, in test [3], the Kd worked out at 0.68 nM.

B2: J1-183D variant 14 (antibody, human IgG1, V domains shown)
VH: QVQLVQSGAELKKPGASVKVSCKVSGYAFTDYAIHWIRQAPGQGLEWMGIINTYYGDSKYAQKFQGRVTMTVDTSTSTAYMELSSLRSEDTAVYYCARGYDGFAYWGQGTLVTVSS
VL: DIQMTQSPSSLSASVGDRVTITCRTSENIYSYLTWYQQKPGKAPKLLIYHAKILDSGVPSRFSGSGSGTDFTLTISSLQPEDFATYYCQHHYDIPWTFGGGTKLEIKR
notes: human IgG1; also called J1-183DV14; V14
Turning to B2, the binding result in test [1] and in test [2] was “no binding (tested: 10 ug/ml)” in each case. Further, the equilibrium dissociation constant (Kd) in test [3] was found to be 3.91 nM.

B3: J1-183D variant 12 (antibody, human IgG1, V domains shown)
VH: QVQLVQSGAEVKKPGASVKVSCKASGYTFTDYAIHWVRQAPGQGLEWMGIINTYYGDSKYAQKFQGRVTMTVDTSTSTAYMELSSLRSEDTAVYYCARGYDGFAYWGQGTLVTVSS
VL: DIQMTQSPSSLSASVGDRVTITCRTSENIYSYLTWYQQKPGKAPKLLIYNAKILDSGVPSRFSGSGSGTDFTLTISSLQPEDFATYYCQHHYDIPWTFGGGTKLEIKR
notes: human IgG1; also called J1-183DV12; V12
As to B3, the binding result in test [1] and in test [2] was “no binding (tested: 10 ug/ml)” throughout. For the same molecule, in test [3], the Kd came to 2.61 nM.

B4: J1-183D variant 13 (antibody, human IgG1, V domains shown)
VH: QVQLVQSGAELKKPGASVKVSCKVSGYAFTDYAIHWIRQAPGQGLEWMGIINTYYGDSKYNQKFKDRVTMTVDKSTSTAYMELSSLRSEDTAVYYCARGYDGFAYWGQGTLVTVSS
VL: DIQMTQSPSSLSASVGDRVTITCRTSENIYSYLTWYQQKPGKAPKLLIYHAKILDSGVPSRFSGSGSGTDFTLTISSLQPEDFATYYCQHHYDIPWTFGGGTKLEIKR
notes: human IgG1; also called J1-183DV13; V13
Turning to B4, the binding result in test [1] and in test [2] was “no binding (tested: 10 ug/ml)” each time. In addition, the Kd in test [3] was determined as 1.5 nM.

B5: J1-183D variant 11 (antibody, human IgG1, V domains shown)
VH: QVQLVQSGAELKKPGASVKVSCKVSGYAFTDYAIHWVRQAPGQGLEWMGIINTYYGDSKYAQKFQGRVTMTVDTSTSTAYMELSSLRSEDTAVYYCARGYDGFAYWGQGTLVTVSS
VL: DIQMTQSPSSLSASVGDRVTITCRTSENIYSYLTWYQQKPGKAPKLLIYNAKILDSGVPSRFSGSGSGTDFTLTISSLQPEDFATYYCQHHYDIPWTFGGGTKLEIKR
notes: human IgG1; also called J1-183DV11; V11
For B5, the binding result in test [1] and in test [2] was “no binding (tested: 10 ug/ml)” in each case. The equilibrium dissociation constant (Kd) in test [3] worked out at 2.82 nM.

B6: J1-183D variant 16 (antibody, human IgG1, V domains shown)
VH: QVQLVQSGAEVKKPGASVKVSCKASGYTFTDYAIHWVRQAPGQGLEWMGIINTYYGDSKYAQKFQGRVTMTVDTSTSTAYMELSSLRSEDTAVYYCARGYDGFAYWGQGTLVTVSS
VL: DIQMTQSPSSLSASVGDRVTITCRTSENIYSYLTWYQQKPGKAPKLLIYHAKILDSGVPSRFSGSGSGTDFTLTISSLQPEDFATYYCQHHYDIPWTFGGGTKLEIKR
notes: human IgG1; also called J1-183DV16; V16
As for B6, the binding result in test [1] and in test [2] was “no binding (tested: 10 ug/ml)” in each case. In test [3], the dissociation constant Kd was 4.86 nM.

B7: J1-183D variant 15 (antibody, human IgG1, V domains shown)
VH: QVQLVQSGAELKKPGASVKVSCKVSGYAFTDYAIHWVRQAPGQGLEWMGIINTYYGDSKYAQKFQGRVTMTVDTSTSTAYMELSSLRSEDTAVYYCARGYDGFAYWGQGTLVTVSS
VL: DIQMTQSPSSLSASVGDRVTITCRTSENIYSYLTWYQQKPGKAPKLLIYHAKILDSGVPSRFSGSGSGTDFTLTISSLQPEDFATYYCQHHYDIPWTFGGGTKLEIKR
notes: human IgG1; also called J1-183DV15; V15
As to B7, the binding result in test [1] and in test [2] was “no binding (tested: 10 ug/ml)” in each case. Also, the equilibrium dissociation constant (Kd) in test [3] worked out at 5.47 nM.

B8: J1-65D variant 6 (antibody, human IgG1, V domains shown)
VH: QVQLVQSGAELKKPGSSVKVSCKASGYTFTDYEMHWVRQAPGQGLEWMGAIQPGGGGTAYAQKFKGRVTLTADKSTSTAYMELSSLRSEDTAVYYCTRRGYDDYPFAYWGQGTLVTVSS
VL: DIQMTQSPSSLSASVGDRVTITCRASGNIHNYLAWYQQKPGKAPKLLIYNAKTLADAVPSRFSGSGSGTDYTLTISSLQPEDFATYYCQHFWSAPWTFGGGTKLEIKR
notes: human IgG1; also called J1-65DV6; V6
Consider B8, for which the binding result in test [1] and in test [2] was “no binding (tested: 10 ug/ml)” each time. Besides, the Kd in test [3] stood at 0.223 nM.

B9: J1-65D variant 1 (antibody, human IgG1, V domains shown)
VH: QVQLVQSGAELKKPGSSVKVSCKASGYTFTDYEMHWVRQAPGQGLEWMGAIQPGGGGTAYNQKFKGRVTLTADKSTSTAYMELSSLRSEDTAVYYCTRRGYDDYPFAYWGQGTLVTVSS
VL: DIQMTQSPSSLSASVGDRVTITCRASGNIHNYLAWYQQKPGKAPKLLIYNAKTLADDVPSRFSGSGSGTDYTLTISSLQPEDFATYYCQHFWSAPWTFGGGTKLEIKR
notes: human IgG1; also called J1-65DV1; V1
Turning to B9, the binding result in test [1] and in test [2] was “no binding (tested: 10 ug/ml)” each time. Further, the Kd in test [3] came out at 0.15 nM.

B10: J1-65D variant 2 (antibody, human IgG1, V domains shown)
VH: QVQLVQSGAELKKPGSSVKVSCKASGYTFTDYEMHWVRQAPGQGLEWMGAIQPGGGGTAYAQKFKGRVTLTADKSTSTAYMELSSLRSEDTAVYYCTRRGYDDYPFAYWGQGTLVTVSS
VL: DIQMTQSPSSLSASVGDRVTITCRASGNIHNYLAWYQQKPGKAPKLLIYNAKTLADDVPSRFSGSGSGTDYTLTISSLQPEDFATYYCQHFWSAPWTFGGGTKLEIKR
notes: human IgG1; also called J1-65DV2; V2
Consider B10, for which the binding result in test [1] and in test [2] was “no binding (tested: 10 ug/ml)” each time. Further, the Kd in test [3] is 0.165 nM.

B11: J1-65D variant 3 (antibody, human IgG1, V domains shown)
VH: QVQLVQSGAEVKKPGSSVKVSCKASGYTFTDYEMHWVRQAPGQGLEWMGAIQPGGGGTAYAQKFQGRVTLTADKSTSTAYMELSSLRSEDTAVYYCTRRGYDDYPFAYWGQGTLVTVSS
VL: DIQMTQSPSSLSASVGDRVTITCRASGNIHNYLAWYQQKPGKAPKLLIYNAKTLADDVPSRFSGSGSGTDYTLTISSLQPEDFATYYCQHFWSAPWTFGGGTKLEIKR
notes: human IgG1; also called J1-65DV3; V3
For the molecule B11, the binding result in test [1] and in test [2] was “no binding (tested: 10 ug/ml)” throughout. In addition, in test [3], the Kd worked out at 0.158 nM.

B12: J1-65D variant 4 (antibody, human IgG1, V domains shown)
VH: QVQLVQSGAEVKKPGSSVKVSCKASGYTFTDYEMHWVRQAPGQGLEWMGAIQPGGGGTAYAQKFQGRVTITADKSTSTAYMELSSLRSEDTAVYYCTRRGYDDYPFAYWGQGTLVTVSS
VL: DIQMTQSPSSLSASVGDRVTITCRASGNIHNYLAWYQQKPGKAPKLLIYNAKTLADDVPSRFSGSGSGTDYTLTISSLQPEDFATYYCQHFWSAPWTFGGGTKLEIKR
notes: human IgG1; also called J1-65DV4; V4
For the molecule B12, the binding result in test [1] and in test [2] was “no binding (tested: 10 ug/ml)” throughout. The Kd in test [3] turned out to be 0.0949 nM.
